Residue numbers refer to the chain shown, from its start. In names and notes the source's numbering stands.
B1: amylin receptor 1 extracellular domain, wild type (hRAMP1.24–111-(GSA)3-hCTR.34–141-H6) (receptor)
chain: TTACQEANYGALLRELCLTQFQVDMEAVGETLWCDWGRTIRSYRELADCTWHMAEKLGCFWPNAEVDRFFLAVHGRYFRSCPISGRAVGSAGSAGSAIEPKPFLYVVGRKKMMDAQYKCYDRMQQLPAYQGEGPYCNRTWDGWLCWDDTPAGVLSYQFCPDYFPDFDPSEKVTKYCDEKGVWFKHPENNRTWSNYTMCNAFTPEK
modifications: N-glycosylated (sites not given)
B2: amylin receptor 1 extracellular domain with calcitonin receptor N124D (hRAMP1.24–111-(GSA)3-hCTR.34–141.N124D-H6) (receptor)
chain: B1 chain with N188D
modifications: N-glycosylated (sites not given)
B3: amylin receptor 1 extracellular domain with calcitonin receptor E123A (hRAMP1.24–111-(GSA)3-hCTR.34–141.E123A-H6) (receptor)
chain: B1 chain with E187A
modifications: N-glycosylated (sites not given)
B4: amylin receptor 1 extracellular domain with calcitonin receptor E123D (hRAMP1.24–111-(GSA)3-hCTR.34–141.E123D-H6) (receptor)
chain: B1 chain with E187D
modifications: N-glycosylated (sites not given)
B5: amylin receptor 1 extracellular domain with calcitonin receptor N124A (hRAMP1.24–111-(GSA)3-hCTR.34–141.N124A-H6) (receptor)
chain: B1 chain with N188A
modifications: N-glycosylated (sites not given)
B6: amylin receptor 1 extracellular domain with calcitonin receptor D97A (hRAMP1.24–111-(GSA)3-hCTR.34–141.D97A-H6) (receptor)
chain: B1 chain with D161A
modifications: N-glycosylated (sites not given)
B7: amylin receptor 1 extracellular domain with calcitonin receptor D97E (hRAMP1.24–111-(GSA)3-hCTR.34–141.D97E-H6) (receptor)
chain: B1 chain with D161E
modifications: N-glycosylated (sites not given)

Assays:
Experiment in all cases: fluorescence polarisation; saturation binding format; 10 nM FITC-labeled peptide probe, purified receptor ECD at rising concentrations; 1 h at room temperature; anisotropy; mean pKD of at least three independent experiments
Details in all cases: both partners purified
[1] = molecular target: T1, FITC-labeled salmon calcitonin (sCT) fragment(22–32) (salmon, fluorescein isothiocyanate (FITC) label, position not stated)
T1 construct: salmon calcitonin, residues 22-32 (11 amino acids); numbers count on: the mature 32-residue hormone; probably FITC at the N-terminus and a C-terminal amide, neither stated for this peptide; also called FITC-sCT(22–32); sCT(22–32); source: synthetic peptide (custom-synthesized, Genscript, HPLC-purified)

[2] = molecular target: T2, FITC-labeled AC413(6–25) with Y25P mutation (fluorescein isothiocyanate (FITC) on the N-terminus)
T2 construct: AC413, an antagonist amylin analog, residues 6-25 (20 amino acids) with Y25P; also called FITC-AC413(6–25) Y25P; AC413(6–25) Y25P; source: synthetic peptide (custom-synthesized, Genscript, HPLC-purified)

[3] = molecular target: T1, FITC-labeled salmon calcitonin (sCT) …; remark: listed apart in the source

Row | Binder | Kd [1] [nM] | pKD [1] | Kd [2] [nM] | pKD [2] | fold decrease of affinity against the wild type [3] [fold]
1 | B1 | 81 | 7.09 | 57 | 7.24 | 
2 | B2 | 52 | 7.29 | 822 | 6.09 | 
3 | B3 | 365 | 6.44 | 129 | 6.89 | 
4 | B4 | 53 | 7.28 | 136 | 6.87 | 
5 | B5 |  |  | 467 | 6.33 | > 10
6 | B6 | 548 | 6.26 | 62 | 7.21 | 
7 | B7 | 161 | 6.79 | 81 | 7.09 | 
